Experiment [1] concerns the target T1, mouse RSPO2 (mouse, UniProt Q8BFU0 22-205, limits assumed).
T1 construct: also called mRSPO2
The experiment is described as follows: SPR (Biacore) with the Fab; table row RSPO2, Affinity (nM) Fab. The procedure: (§1) For kinetic measurements, two-fold serial dilutions of anti-RSPO Fabs were injected in HBS-P buffer (0.01M HEPES pH 7.4, 0.15M NaCl, 0.005% surfactant P20) at 25° C. with a flow rate of 30 μl/min. Association rates (kₒₙ) and dissociation rates (koff) were calculated using a simple one-to-one Langmuir binding model (BIAcore Evaluation Software version 3.2). The equilibrium dissociation constant (KD) was calculated as the ratio koff/kₒₙ.
(§2) Surface plasmon resonance was used to confirm binding specificities and affinities to human, mouse, and cynomolgus RSPOs. Fab fragments from antibody clones were digested, purified, and then assayed using a BIAcore™-2000 instrument for binding to recombinant proteins. Antibodies fell into three groups: those specific to RSPO2, those specific to RSPO3, and those with some degree of cross-reactivity (FIG. 5).
A general note: In SPR one partner is held on a chip, and binding of the other changes the refractive index at the surface.

In experiment [2] the target is T2, recombinant human RSPO3 (human, UniProt Q9BXY4 22-272).
T2 construct: also called rhRSPO3; hRSPO3
T2 sequence: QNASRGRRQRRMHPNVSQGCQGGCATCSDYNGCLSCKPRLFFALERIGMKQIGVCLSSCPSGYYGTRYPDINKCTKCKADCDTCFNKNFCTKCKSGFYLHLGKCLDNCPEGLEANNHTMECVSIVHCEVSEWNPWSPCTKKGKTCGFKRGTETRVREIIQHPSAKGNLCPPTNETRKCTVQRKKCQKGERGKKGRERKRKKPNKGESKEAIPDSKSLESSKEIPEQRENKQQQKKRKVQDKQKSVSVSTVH
The experiment can be described thus: SPR (Biacore) with the Fab; table row RSPO3, Affinity (nM) Fab. The procedure:
as §1, §2

Experiment [3] has as its target T3, cynomolgus RSPO3 (cynomolgus, UniProt A0A2K5UTQ7 22-273).
T3 construct: also called cynoRSPO3; rcynoRSPO3
T3 sequence: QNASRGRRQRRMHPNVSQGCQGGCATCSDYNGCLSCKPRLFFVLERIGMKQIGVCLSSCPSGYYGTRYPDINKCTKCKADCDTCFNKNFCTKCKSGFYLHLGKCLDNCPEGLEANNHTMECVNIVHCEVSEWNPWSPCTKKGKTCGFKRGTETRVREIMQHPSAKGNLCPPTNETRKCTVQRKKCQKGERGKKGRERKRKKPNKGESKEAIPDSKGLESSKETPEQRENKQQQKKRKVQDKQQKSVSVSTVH
Described as above. The procedure: as §1, §2

Experiment [4] concerns the target T4, mouse RSPO3 (mouse, UniProt Q2TJ95 22-277, limits assumed).
T4 construct: also called mRSPO3; murine RSPO3
T4 sequence (looked up): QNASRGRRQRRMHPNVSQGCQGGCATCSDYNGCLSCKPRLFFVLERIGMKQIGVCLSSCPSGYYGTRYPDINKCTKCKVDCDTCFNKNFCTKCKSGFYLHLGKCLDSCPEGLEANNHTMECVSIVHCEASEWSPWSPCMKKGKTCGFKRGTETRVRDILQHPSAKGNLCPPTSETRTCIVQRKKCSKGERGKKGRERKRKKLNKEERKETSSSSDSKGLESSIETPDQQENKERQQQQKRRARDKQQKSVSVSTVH
The experiment is described as above. As for the experimental part: as §1, §2

The target of experiment [5] is T5, human RSPO3 with C-terminal HA tag, stably expressed in 293 cells (human, UniProt Q9BXY4 22-272).
T5 construct: Whole open reading frame expressed in HEK-293 cells (high, medium, low); FFPE pellets; also called hRSPO3; RSPO3 Hi
T5 sequence: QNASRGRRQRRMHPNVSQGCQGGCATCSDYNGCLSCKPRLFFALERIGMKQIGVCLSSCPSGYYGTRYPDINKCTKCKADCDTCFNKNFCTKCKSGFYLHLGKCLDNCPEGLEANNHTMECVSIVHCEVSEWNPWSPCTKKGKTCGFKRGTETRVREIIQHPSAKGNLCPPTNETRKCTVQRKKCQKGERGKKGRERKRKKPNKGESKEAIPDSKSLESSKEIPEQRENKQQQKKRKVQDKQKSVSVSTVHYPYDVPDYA
The experiment is described as follows: IHC, FFPE 293 cell pellet, RSPO3 Hi.

For experiment [6], the target named is T5, human RSPO3 with C-terminal HA tag, …. The experiment is described as follows: IHC, FFPE 293 cell pellet, RSPO3 Low.
In experiment [7] the target is T6, FLAG-tagged human RSPO3 (Genentech) (human, UniProt Q9BXY4 22-272).
T6 construct: also called hRSPO3; RSPO3 coated plates; not shown: FLAG tag
T6 sequence: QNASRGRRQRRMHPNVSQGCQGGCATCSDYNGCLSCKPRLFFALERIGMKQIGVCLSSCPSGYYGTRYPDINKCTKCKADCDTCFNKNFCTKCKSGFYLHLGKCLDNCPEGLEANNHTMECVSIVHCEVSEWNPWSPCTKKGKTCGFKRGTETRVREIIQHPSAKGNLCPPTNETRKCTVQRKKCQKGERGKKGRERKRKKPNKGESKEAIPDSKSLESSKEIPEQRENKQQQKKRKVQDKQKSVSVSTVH
The experiment is described as follows: competitive binding ELISA: antibody titrated against LGR4-Fc (LGR4-ECD) binding to plate-coated hRSPO3; signal = bound LGR4-Fc, OD(450/630)/OD no antibody. The procedure:
To measure the activity of anti-RSPO antibodies in blocking the binding of LGR4 and -5 ECDs to RSPOs, MaxiSorp 384-well microwell plates (Thermo Scientific Nunc, Roskilde, Denmark) were coated with 25 ul/well of 0.5 μg/ml hRSPO2 or hRSPO3 (Genentech) in 50 mM carbonate buffer, pH 9.6, overnight at 4° C. Plates were blocked with at 80 ul/well of 0.5% bovine serum albumin, 15 parts per million Proclin 300 in phosphate buffered saline (PBS), pH 7.4, for 1 hour. Serially diluted anti-RSPO antibodies ([…] in […] serial dilution plus buffer blank) containing 0.1 μg/ml LGR4-Fc or 0.015 μg/ml LGR5-Fc in assay buffer (0.5% BSA, 0.05% polysorbate 20, 15 parts per million Proclin 300 in PBS) were added to the plates at 25 ul/well. After a 2-hour incubation, LGR4-Fc and LGR5-Fc bound to the plates were detected using peroxidase labeled goat F(ab′)2 anti-human Fc (Jackson ImmunoResearch, West Grove, Pa.). After a 1 hour incubation, the substrate 3,3′,5,5′-tetramethyl benzidine (Moss Inc., Pasadena, Md.) was added to the plates and the reaction was stopped by adding 1 M phosphoric acid. Plates were washed with PBS, pH 7.4, containing 0.05% tween 20, between steps and all the incubation steps following the coating step were performed at room temperature on an orbital shaker. Absorbance was read at 450 nm on a multiskan Ascent reader (Thermo Scientific, Hudson, N.H.).

Experiment [8] concerns the target T2, recombinant human RSPO3. The experiment is described as follows: cell-based or functional assay.
The target of experiment [9] is T1, mouse RSPO2. The experiment can be described thus: cell-based or functional assay.
In experiment [10] the target is T3, cynomolgus RSPO3. The experiment can be described thus: cell-based or functional assay.
Another experiment deals with cynomolgus RSPO2 (cynomolgus, UniProt G7PCH9 22-243). The experiment is described as follows: cell-based or functional assay.
Sequence of cynomolgus RSPO2 (G7PCH9 entry or part of it): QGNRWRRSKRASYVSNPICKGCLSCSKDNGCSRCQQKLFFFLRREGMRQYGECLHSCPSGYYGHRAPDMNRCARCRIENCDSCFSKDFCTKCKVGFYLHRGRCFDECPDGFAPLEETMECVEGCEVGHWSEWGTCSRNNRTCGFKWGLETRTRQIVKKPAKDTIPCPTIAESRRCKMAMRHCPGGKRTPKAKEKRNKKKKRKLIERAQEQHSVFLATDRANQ
A further experiment addresses recombinant human RSPO2 (human, UniProt Q6UXX9 22-243). The experiment can be described thus: cell-based or functional assay.
Experiment [11] deals with T4, mouse RSPO3. The experiment is described as follows: cell-based or functional assay.
Experiment [12] has as its target T7, human RSPO1 with C-terminal HA tag, stably expressed in 293 cells (human, UniProt Q2MKA7 21-263).
T7 construct: also called hRSPO1; RSPO1 Hi
The experiment is described as follows: IHC, FFPE 293 cell pellet, RSPO1 Hi; - = not significant staining.

For experiment [13], the target named is T5, human RSPO3 with C-terminal HA tag, …. The experiment can be described thus: IHC, FFPE 293 cell pellet, RSPO3 Med.
Experiment [14] concerns the target T8, human RSPO4 with C-terminal HA tag, stably expressed in 293 cells (human, UniProt Q2I0M5 20-234).
T8 construct: also called hRSPO4; RSPO4 Hi
The experiment can be described thus: IHC, FFPE 293 cell pellet, RSPO4 Hi; - = not significant staining.

For experiment [15], the target named is T2, recombinant human RSPO3. The experiment is described as follows: SPR, BIAcore T200, huRSPO3 immobilized, antibody injected. As for the experimental part:
The binding affinity of the antibodies in this section was determined by BIAcore™ T200 Format. Briefly, BIAcore™ research grade CMS chips were activated with 1-ethyl-3-(3-dimethylaminopropyl) carbodiimide (EDC) and N-hydroxysuccinimide (NETS) reagents according to the supplier's instructions. huRSPO3 was immobilized to achieve approximately 50 response units (RU) in each flow cell. Unreacted coupling groups were blocked with 1M ethanolamine. For kinetics measurements, Four-fold serial dilutions of variant antibody was injected in HBS-P buffer (0.01M HEPES pH7.4, 0.15M NaCl, 0.005% surfactant P20) at 25° C. with a flow rate of 30 μl/min. Association rates (kon) and dissociation rates (koff) were calculated using a 1:1 Langmuir binding model (BIAcore™ T200 Evaluation Software version 2.0). The equilibrium dissociation constant (Kd) was calculated as the ratio koff/kon.

T1 sequence (Q8BFU0 22-205 limits assumed): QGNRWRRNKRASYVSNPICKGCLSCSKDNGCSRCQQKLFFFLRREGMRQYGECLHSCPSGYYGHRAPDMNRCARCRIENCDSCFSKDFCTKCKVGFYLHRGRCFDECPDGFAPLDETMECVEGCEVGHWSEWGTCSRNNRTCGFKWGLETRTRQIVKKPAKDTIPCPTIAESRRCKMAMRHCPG
T7 sequence (Q2MKA7 other isoform, or with tags, fused parts or gaps limits assumed): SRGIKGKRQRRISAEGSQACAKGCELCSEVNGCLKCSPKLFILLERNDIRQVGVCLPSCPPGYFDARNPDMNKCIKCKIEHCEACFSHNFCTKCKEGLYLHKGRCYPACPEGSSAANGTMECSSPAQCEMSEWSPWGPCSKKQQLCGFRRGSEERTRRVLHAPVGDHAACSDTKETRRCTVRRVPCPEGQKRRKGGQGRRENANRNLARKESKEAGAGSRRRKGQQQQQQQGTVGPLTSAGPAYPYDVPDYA
T8 sequence (Q2I0M5 other isoform, or with tags, fused parts or gaps limits assumed): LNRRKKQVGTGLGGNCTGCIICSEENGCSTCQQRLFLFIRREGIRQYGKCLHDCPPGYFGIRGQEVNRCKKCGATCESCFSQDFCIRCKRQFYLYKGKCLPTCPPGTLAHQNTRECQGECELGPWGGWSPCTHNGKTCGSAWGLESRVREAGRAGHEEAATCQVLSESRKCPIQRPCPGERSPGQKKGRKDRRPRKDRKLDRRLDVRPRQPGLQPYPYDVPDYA
Sequence of recombinant human RSPO2 (Q6UXX9 22-243): as the sequence (G7PCH9 entry or part of it) above, with A160V, P165L, A178T counted along it

B1: Fab 5D6 (Fab, V domains shown)
VH: EVQLQESGPSLVKPSQTLSLTCSVTGDSITSGYWNWIRKFPGNKFEYMGYISYSGKTYQNPSLKSRISITRDTSKNQYHLQLNSVTTEDTATYYCATYYGYGGPWFAYWGQGTLVTVSA
VL: DIVLTQSPSSMYASLGERVTITCKASQDIDSYLSWFQQKPGKSPKTLIYLTNRLVDGVPSRFSGSGSGQDYSLTISSLEYEDMGIYYCLHYDEFPLTFGAGTKLEIK
notes: Fab expressed in E. coli for crystallography; also called 5D6 Fab
The term Kd denotes a measure of binding affinity in units of concentration. In the case of B1, the binding result with mouse RSPO2 [1] is listed as “no binding”. Moreover, the Kd in the experiment with recombinant human RSPO3 [2] came to 0.073 nM; with cynomolgus RSPO3 [3], 1.9 nM; with mouse RSPO3 [4] it was 3.36 nM.

B2: 5C2 (antibody, V domains shown)
VH: EVQLQESGPGLVAPSQSLSITCTVSGFSLTSYGVHWVRQPPGKGLEWLGVIWTGGSTNYNSALMSRLSISKDNSKSQVFLKMNSLQTDDTAMYYCARVDGYYYFDYWGQGTTLTVSS
VL: DIVMTQSTSSLSASLGDRVTISCRASQDISNYLNWYQQKPDGTVKLLIYYTSRLHSGVPSRFSGSGSGTDYSLTISNLEPEDIATYFCQQGDTLPPTFGGGTKLEIK
notes: also called monoclonal antibody 5C2
Turning to B2, the “percentage of cells staining” value is more than 95% in experiment [5], 40% in [6] and 60% in experiment [13]. For the same molecule, in experiment [7], the “IC50 (read off the curve)” value was approximately 0.1 µg/mL. The “IC50, WNT luciferase reporter, bivalent antibody” value with recombinant human RSPO3 [8] was 0.65 nM; with mouse RSPO2 [9], more than 500 nM; with cynomolgus RSPO3 [10], 1.3 nM; with cynomolgus RSPO2, more than 500 nM; with recombinant human RSPO2 it was more than 500 nM; with mouse RSPO3 [11], 0.47 nM. The binding result in experiment [12] and in experiment [14] was “no binding” each time.

B3: 6E9 (Fab, V domains shown)
VH: QVQLKESGPGLVQPSQSLSITCTVSGFSLTSYGVHWVRQSPGKGLEWLGVIWSGGSTDYNAAFISRLSISKDNSKSQVFFKMNSLQANDTAIYYCARNDGYYYFDYWGQGTTLTVSS
VL: DIKMTQSTSSLSASLGDRVTISCRASQDISNYLNWYQQKPDGTVKLLIYYTSRLHSGVPSRFSGSGSGTDYSLTISNLEQEDIATYFCQQGDTLPPAFGGGTKLEIK
notes: also called Fab of 6E9; 6E9 Fab
With B3, the binding result in the experiment with mouse RSPO2 [1] is reported as “no binding”. The Kd in the experiment with recombinant human RSPO3 [2] is 67 nM.

B4: 21C2 (antibody, V domains shown)
VH: QVQLQQSGAELVRPGVSVKISCKGSGYTFTDYVIHWVKQSHAKSLEWIGVITTYYGDASYNQKFKGKATMTVDKSSSTAYMELARLTSEDSAIYYCARGAYGNSPSYWYFDVWGAGTSVTVSS
VL: DIVLTQSPASLTVSLGQRATISCRASESVDSYGNTFMHWYQQKPGQPPKLLIYLASNLESGVPARFSGSGSRTDFTLTIDPVEADDAATYYCQQNNEDPYTFGGGTKLEIK
notes: also called monoclonal antibody 21C2
As for B4, the “percentage of cells staining” value worked out at 95% in experiment [5], 10% in experiment [6] and 60% in [13]. Also, the “IC50 (read off the curve)” value in [7] is approximately 0.1 µg/mL. For the same molecule, the binding result in experiment [12] and in experiment [14] was “no binding” in each case.

B5: 4H1 (Fab, V domains shown)
VH: EVKLVESGGGFVKPGGSLKLSCAASGFTFSNFAMSWVRQSPEKRLEWVAEINNGGNYAYYQDTVTGRFTISRDNAKNTLYLEMSSLRSEDTAMYFCAREDYVNYEAYFAYWGQGTTLTVSS
VL: SIVMTQTPLSLPVSLGDQASISCRSSQSIVHSNGNTYLEWYLQKPGQSPKLLIYRISNRFSGVPDRFSGSGSGTDFTLKISRVEAEDLGVYYCFQGSHVPYTFGGGTKLEIK
notes: also called Fab of 4H1; 4H1 Fab
Consider B5, for which, in the experiment with mouse RSPO2 [1], the binding result was “no binding”. Moreover, the Kd was determined as 9.5 nM with recombinant human RSPO3 [2], 6.4 nM with cynomolgus RSPO3 [3] and 6.8 nM in the experiment with mouse RSPO3 [4].

B6: hu5D6v4.3 (Fab, V domains shown)
VH: EVQLVESGPGLVKPSETLSLTCTVSGDSITSGYWNWIRQPPGKGLEWIGYISYSGKTYQNPSLKSRITISRDTSKNQFSLKLSSVTAADTAVYYCATYYGYGGPWFAYWGQGTLVTVSS
VL: DIQMTQSPSSLSASVGDRVTITCKASQDIDSYLSWFQQKPGKAPKTLIYLTNRLVDGVPSRFSGSGSGTDYTLTISSLQPEDFATYYCLHYDEFPLTFGQGTKVEIK
notes: Humanized 5D6 variant; also called v1+T69 (LC)+(W47+I48+F78 (HC))
Turning to B6, the Kd with recombinant human RSPO3 [15] turned out to be 0.07 nM.

For the origin of these results see patent publication US20180312579A1 (Genentech, published 2018).
